Source: US20200199214A1 (Hoffmann-La Roche, published 2020)

Tests used:
[1] = target: T1, human IL-1 beta (PeproTech 200-01B) (human, UniProt P01584 117-269); assay: SPR competition: Fab (from 200 nM, 1:2 dilutions) preincubated with 50 nM IL-1beta, injected over immobilised IL-1bR1 (competitor); without VEGF
T1 construct: As printed it covers only the N-terminal part of the precursor, so it was not used; also called huIL-1 beta; IL1β
Protocol: As running and dilution buffer, HBS-P+(10 mM HEPES, 150 mM NaCl pH 7.4, 0.05% Surfactant P20) was used.
For assessing VEGF-receptor binding inhibition, a final concentration of 200 nM of R07200394 or 400 nM antibody 0032 was preincubated with 50 nM VEGF121. For assessing IL-1beta-receptor binding inhibition, a final concentration of 200 nM of R07200394 or 200 nM antibody 0032 was with preincubated with 50 nM IL-1beta. Samples were diluted (1:2) in the corresponding 50 nM VEGF121 or IL-1beta solution.
The antibody/ligand mixtures were injected onto the VEGFR2 or IL-1R1 surface for 60 s at a flow rate of 5 μl/min. After a dissociation phase for 60 s, the VEGFR2 surface was regenerated by injecting 5 mM NaOH for 60 s, whereas the IL-1R1 surface was regenerated by injecting 10 mM Glycine pH 3.0 followed by 5 mM NaOH for 60 s each. Bulk refractive index differences were corrected by subtracting blank injections and by subtracting the response obtained from the blank control flow cell. For evaluation, the binding response 5 seconds after inject end was taken. The derived response in RU was transformed to a binding response relative to the initial signal corresponding to the ligand(s) without antibody. IC50 values were calculated using a 4 parameter logistic model (XLfit, ID Business Solutions Ltd.)

[2] = target: T2, VEGF165 (UniProt P15692-4 27-191); assay: competition ELISA: Fab preincubated with VEGF165, free VEGF165 bound to coated rhVEGFR-1-Fc detected; sheet title 'Competition ELISA VEGFR1-Fc, 8 pM VEGF165'
T2 construct: also called VEGF165 (Humanzyme, HZ-1153)
Protocol: 96-well-Plates (Maxisorp Nunc-Immoplates) were coated with 50 μL/well rhVEGFR-1-Fc (R&D #321-FL-050) at a final concentration of 1 μg/ml in 200 mM NaHC0₃, pH 9.4 for 1 hour at room temperature.
Meanwhile, antibody Fab fragments of different concentrations were preincubated with VEGF for form an antibody Fab-VEGF premix as follows: A dilution series of antibody Fab fragment was prepared by adding 280 μl of a solution of antibody Fab fragments (409.6 nM antibody in PBST-1% BSA) into the wells of the first column of a round bottom 96-well PS plate. The individual wells of columns 2-12 of the same plate were filled with 140 μl PBST-1% BSA. Subsequently, 1:2 dilutions were performed by transferring 140 μl of the antibody solution into the next column, thorough mixing and proceed with transferring 140 μl of this diluted antibody solution to the next column. This is repeated until column 11. Excess of 140 μl were discarded so that all wells comprise 140 μl. Column 12 served as the control (blank). […] 50 μl of the dilution series of the respective antibody Fab fragment were added to the VEGF121, or VEGF165, respectively; mixed thoroughly and incubated for 1.5 hours at room temperature.
The rhVEGFR-1-Fc coated plates were washed two times with PBST and blocked for 45 min with 200 μl of 2% MPBST. After washing off the MPBST solution twice with PBST, 50 μl of the antibody Fab-VEGF premix were added to the plate and incubated for 1.5 hours at room temperature. Subsequently, the plates were washed twice with PBST. Then, 50 μl of a solution comprising biotinylated anti-VEGF antibody (R&D, BAF293; 1:2000 dilution in PBST) and SA-HRP (KPL, 14-30-00; 1:2000 dilution in PBST) was added and incubated for 30 min at room temperature. After 6× washing with PBST, 50 μl of TMB substrate solution (two-component HRP substrate (KPL, 34021); used at room temperature) was added and incubated for 30 min at room temperature. 50 μl of 1N H₂SO₄ was added and absorbance was read at 450 nm.

- IC50 [1]: 22 nM
- IC50 (read off the curve) [2]: ~0.09 nM
B1: bispecific anti-VEGF/anti-IL-1beta Fab fragment RO7200394 (Fab, V domains shown)
VH: DEQLVESGGGLVKPGGSLRLSCAAEGMVFKWNDMSWVRQAPGKGLEWVGSISKKGDHKYLNTKFIGRFTISRDNEKDTLYLQMNSLRAEDTAVYYCAKDVGFFDIWGQGTLVTVSS
VL: AIYMHQEPSSLSASVGDRVTITCHGSYWLSSLVAWYQQKPGKAPKLLIYDAKYKHLGVPSRFSGSKEDQEFTLTISSLQPEDFATYYCQQYRYHPYTFGHGTKVEIKR
notes: same variable domains as 1HVL12.85; also called R07200394
